What all share (format): cell-based, human
Test [1] concerns P2RY1+/ALK3+ sorted cells. In words: Sorted P2RY1+/ALK3+ cells treated with BMP-7 with or without dorsomorphin. As to conditions: 100 ng/μl BMP-7, qRT-PCR and IF. The method, then: A 2-color FACS selection for dissociated hNEPT (as well as collagenase-digested MPDs) that are positive for the surface markers P2RY1 and ALK3 (Life Span Biosciences) is conducted. This approach has already been successfully tested, as is shown herein. Sorted cells are treated with 100 ng/μl of BMP-7 with or without dorsomorphin, which inhibits BMP signaling. Additional aliquots receive no treatment. […] This is determined by qRT-PCR and IF as above, as well as ultrastructural analyses by TEM.
A general note: Quantitative PCR measures a nucleic acid by following its amplification.

Test [2] has as its system hNEPT. Put plainly: Immunofluorescence / ImageJ quantification of C-peptide+ cells. As to conditions: 12 fields/sample, n=3; controls 8.15±0.92%, P<0.0001. On the procedure: Immunofluorescence characterization of the insulin-expressing clusters was conducted. To rule out potential false-positives derived from the presence of residual insulin in the culture medium, we stained for C-peptide, which is present in pro-insulin and therefore indicates de novo synthesis of insulin. […] In order to quantify the number of C-peptide+ cells after BMP-7 treatment ImageJ and the FIJI Analyze particles feature was used. Using this software on an average of 12 fields/sample (n=3), the percentage of C-peptide+cells in hNEPT populations after BMP-7 treatment was determined to be 30.43±4.07% vs. 8.15±0.92% in controls (P<0.0001).
IF analysis and confocal microscopy: The present study was conducted on human pancreatic samples from cadaveric organ donors. […]
Imaging analysis: For general quantification purposes (e.g., percentage of C-peptide+ cells) we used ImageJ and the FIJI Analyze particles feature. […] Images were then binarized for quantification. The Watershed function was used on the DAPI channel to separate touching nuclei, which were subsequently counted by the Analyze particle command. Subsequently, we detected nuclei that were overlapping with C-peptide+ areas using the AND operator under the Image calculator feature of FIJI. Finally, we quantified the number of nuclei in the overlap area and calculated the ratio of the overlapping nuclei against the total nuclei.

The subject of test [3] is hNEPT. Put plainly: TLDA qRT-PCR gene expression in BMP-7-treated hNEPT. As to conditions: BMP-7-treated vs untreated control. On the procedure: The expression of 43 genes (including epithelial, acinar, islet and mesenchymal cell markers) was studied in hNEPT preparations (n=8) treated with BMP-7 and untreated controls at the same time point. […] GCK, MAFA and NKX6.1, as well as islet development markers HNF1B and NEUROD1 were also elevated.
hNEPT culture: Human islets were isolated at the DRI's cGMP facility following methods already described54, and hNEPT samples (2-4 ml) were obtained as an isolation byproduct. The cells were washed and seeded on tissue culture-treated plates in FBS- and trypsin inhibitor-supplemented RPMI 1640 medium (Gibco-Life Technologies, Grand Island, N.Y.). After 48 h, floating cells were removed with fresh medium replacement. The following day, cultures were either treated with 100 ng/ml BMP-7 (ProSpec-Tany TechnoGene; Ness Ziona, Israel) or remained in the starting medium as controls. Cells were allowed to grow 4-5 days and then the serum-containing medium was replaced by serum-free Advanced RPMI 1640 (Gibco-Life Technologies, Grand Island, N.Y.). Four to five days later the cells were either subjected to static incubation to evaluate their ability to respond to changing glucose concentration or collected for further assessments (such as C-peptide content, immunohistochemistry or cellular composition) or transplantation.
Quantitative Real Time RT-PCR: Samples were washed in PBS and resuspended in RNA later (Life Technologies—Ambion, Grand Island, N.Y.). RNA was extracted with the mirVana kit (Life Technologies-Applied Biosystems, Grand Island, N.Y.). 2 ng/μl of RNA was used for cDNA synthesis using High-Capacity cDNA Kit (Life Technologies-Applied Biosystems, Grand Island, N.Y.). Quantitative RT-PCR was performed with TaqMan assays (Life technologies—Applied Biosystems, Grand Island, N.Y.) following manufacturer's instructions. RNA expression was calculated as Relative Quantification (RQ) by Applied Biosystems software using the formula RQ=2−ddCT (ddCT=dCT of the sample−dCT of the control). dCT is the number of cycles normalized by endogenous control. Individual reactions were performed with a 7500 Fast Real Time PCR system (Life Technologies). Some experiments were performed using custom-made Taqman® Low Density Microarray (TLDA) cards containing 43 target genes and 3 endogenous genes (ubiquitin C, 18S rRNA and beta actin) and ran in a 7900 Real time PCR cycler (Life Technologies). Cts >35 were considered undetermined.

B1: BMP-7: 35 kDa homodimeric protein of the TGF-β superfamily; FDA-approved agent; human mature chain SEQ ID NO:1/2 (protein, listed as Homo sapiens)
chain: IRSTGSKQRSQNRSKTPKNQEALRMANVAENSSSDQRQACKKHELYVSFRDLGWQDWIIAPEGYAAYYCEGECAFPLNSYMNATNHAIVQTLVHFINPETVPKPCCAPTQLNAISVLYFDDSSNVILKKYRNMVVRACGCH
modifications: homodimer; human mature chain of BMP-7 (NCBI Reference Sequence NM_001719.2) comprising peptide from 293-431
Regarding B1, the “expression of endocrine differentiation genes vs. control or BMP-7+dorsomorphin” value in test [1] is reported as “induces the expression of endocrine differentiation genes”. Moreover, the “percentage of C-peptide+ cells in hNEPT populations after treatment” value in the test with hNEPT [2] was found to be 30.43±4.07%. Also, in the test on hNEPT [3], the “GCK, MAFA, NKX6.1, HNF1B and NEUROD1 expression” value is listed as “elevated”; the “extra-insular genes KRT-19, CPA1 and PNLIP expression” value is listed as “up-regulation”. Moreover, the “ZEB2 expression (up-regulated)” value with hNEPT [3] (P<0.05) came out at 1.6 fold. Moreover, in the test with hNEPT [3] (p<0.01), the “E-cadherin (CDH1) expression (up-regulated)” value is on record as 6 fold and the “EMT marker ZEB1 expression (down-regulated)” value turned out to be 0.4 fold. Moreover, in the test with hNEPT [3] (same time point, n=8), the “PDX1 gene expression, average increase” value was 29 fold; the “glucagon gene expression, average increase” value worked out at 92 fold; the “insulin gene expression, average increase” value is 40 fold; the “pancreatic polypeptide (PPY) gene expression, average increase” value worked out at 14 fold. In the test on hNEPT [3] (same time point, n=8), the “somatostatin (SST) gene expression, average increase” value came out at 28 fold.

Values taken from US11466255B2, “Methods and compositions for converting non-endocrine pancreatic tissue into insulin-producing cells” (UNIVERSITY OF MIAMI, priority 2015, dated 2022).
